Results published in article PMC2638020, “Large-Scale Structural Analysis of the Classical Human Protein Tyrosine Phosphatome” (Cell, 2009).

Target: the molecule itself
Experiment: AUC; sedimentation equilibrium; 0.2, 0.4 and 0.8 mg/ml, 7500 and 10,000 rpm; global fit with a self-association model; dimer to monomers

B1: RPTPγ tandem phosphatase domains (D1-D2), wild type (domain or fragment)
chain: not shown
notes: RPTPγ (PTPRG), human, tandem catalytic domains D1-D2; PDB 2NLK); Vector, tag state and construct limits are in the Supplemental Data; also called PTPRG; RPTPγ D1-D2; source: E. coli BL21(DE3), purified
- Kd: 3.5 ± 0.3 µM
- stoichiometry N: 2
